Laboratory results from the nanobody polyreactivity screen of Harvey et al. (2022).

Assay: yeast display, Sf9 membrane polyspecificity reagent, FACS + sequencing; frameworks hold sequencing errors
How it was run: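 Using colony PCR, genes from sorted yeast display clones were amplified, then sequenced on MiSeq at 2 × 250 and filtered by CDR length. The clones had been stained with 10% biotinylated, detergent-solubilized Sf9 membrane reagent for 1 hour at 4 °C and sorted by FACS into low and high (top ~1%) gates on anti-HA and streptavidin fluorescence. Polyreactivity labels come from the gate of origin.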

Row | Sequence | polyreactivity (PSR sort gate)
1 | QVQLVESGGGLVQAGGSLRLSCAASGGMGWYRQAPGKERELVATISSVGSTNYADSVKGRFTISRDNAKNTVYLQRNSLKPEVTAVYYCNATGVQYFLYGYWGQGTQVTVSS | low polyreactivity
2 | QFQLVESGGGLVQAGVSLRLSCAASGSTFYYGMVCSRHAPRKERELVAAISSRGGTTYYADSVKGRFTISRDNAKNTVYLQMNSLKPEDTAVYYCAAPVPYYVPSRNEGDYWGQGTQVTVSS | low polyreactivity
3 | QVQLVESGGGLVQAGGSLRLSCAASGFTIRRYAMGWYRQAPGKERALVAAITTGGSTYYADSVKGRFTISRDNAKNTVYLQMYSLKPEDTAVYYCATDTYPYPLYYSPGAYGYWGQGTQVTVSS | high polyreactivity
4 | QVQHVESRGGLVQAGGSLRLSCAASGSTFCRYAMGWYRKAPGKEREFVARITYSSGRTYYADSVKGRFTISRDNAKNTVYLQMNSLKPDDTAVYYCAAGDYTRGPCGDYWGQGTQVTVSS | high polyreactivity
5 | QVQLVDSGGGLVQAGGSLRLTCAASGSIFDRYAMGWYRQAPGKERELVAAITGRGTSTYYADSVKGRFTISRDNAKNTVYLQMNSLKPEETAVYYCATPFWSRPAQDEYDYWGQGTQVTVSS | high polyreactivity
6 | QDQLVESGGGLVQAGGSLRLSCAASGSIFVHYVMGWYRQAPGKERELVAAISSRGGGTFYADSVKGRFTISRDNAKNTVYLQMNSLKPEDTAVSYCARVPYFGSGAIRDYWGQGTQVTVSS | high polyreactivity
7 | QVQLEESGGGLVQAGGSLRLSCAASGYTFSHYAIGWYRQAPGKERELVAGITWSGGSTYYADSVKGRFTISRDYAKNTVYLQMNSLKPEDTSVYYCAAKYYWYYSYSGIPLFDYWGQGTQVTVSS | low polyreactivity
8 | QDQLVESGGGLVQAGGSLRLSCAASGITFAYYVMGWYRQATGKERELVAAISRSGSTYYADSVKGRFTISRDNAKNTVYLQMNSLKPEDTAVNYCAVLYIRWYTYEYWGQGTQVTVSS | high polyreactivity
9 | QVQLVESGGGLVQAGGSLRLSCAASGSTFSPYAMGWYRQAPGKERELVANITISGGSTYYADSVKGRFTISRDTAKNTVYLQMNSLKPEDTAVYYCNADSLIRWLFTVVILDYWGQGTLVTVSS | low polyreactivity
10 | QVQLVESGGGLVQAGGSLRLSCAASGRTYHGYAMGWYRQAPGKERELVARINWSDGRTYYADSVKGRFTISRDNAKNTVYLQMNSLKPEDTAVYYCAADKTVSYAPAWYYYWGQGTQVNVSS | low polyreactivity
11 | QVQLVESGGGLVQAGGSLRLSCAASGRIFTRYAMGWYRQAPGKERELVAAITYNGGSTYYADSVKGRFTISRDNAKNTVYLQMNSLKPEDTAVYYCNAVYLSWFGLYAGFDYWGQGTQVTVSS | high polyreactivity
12 | QVQLVESGGGLVQAGGSLRLSCAASGSTFRQYAMGWYRQAPGKERELVAAISSSGSTTYYADSVKGRFTISRDNAKNTVDVQMNSRKPEDTAVYYCAATYGFYYFPYDYWGQGTQVTVSS | low polyreactivity
13 | QVQLVESGGGLVQAGGSLRLSCAGSGRTFRTYTRGWYRQAPGKERELVAAISWSGSSTYYADSVKGRFTISRDNAKNTVYLQMNSLKPEDTAVYYCAARGLYDYGYWGQGTQVTVSS | high polyreactivity
14 | QVQLVESGGGLVQAGGSLRLSCAASGFTFYSYAMGWYRQAPGKERELVASISQSGGRTYYADSVKGRFTISRDNAKNTVYLQMNSLKPEDTAVYYCARQRSYGRSSYSYGYDYWGQGTQVTVSS | high polyreactivity
15 | QVQLVESGGGLVQAGGSLRLSCAASGRIFSDYVMGWYRQAPGKERELVADITGGGSTYYADSVKGRFTISRDNAKNTVYLQMNSLKPEDTAVYYCAARVYSYWDRSQRYYYCGQGTQVTVSS | high polyreactivity
16 | QLQLVESGGGLVQAGGSLRLSCAASGSTLYWNAMGWYRQAPGKERELVAGISIGGRTNYADSVKGRFTISRDNAKNTVYLQMNSLKPEDTAVYYCNAENTYLGSRYRPYNYWGQGTQVTVSS | low polyreactivity

Row | Sequence | polyreactivity (PSR sort gate)
17 | QVQLVESAGGLVQAGGSLRLTCAASGNIFRRYAMGWYRQAPGKERELVAAISWRSGNTYYADSVKGRFTISRDNAKNTVYLQMNSLKPEDTAVYYCNKDYWWIPQLPHYNYWGQGTQVTVSS | low polyreactivity
18 | QVQLVESGGGLVQAGGSLRLSCAASGRTFKTYAMGWYRQAPGKERELVAAIDSGGNTYADSVKGRFTISRDNAKNTVYLQMNSLKPEDTAVYYCAVDGGEFSSYGYWGHGTQVTVSS | low polyreactivity
19 | QVQLVESGGGIVQAGGSLRLAVLPPDLPSTLNDMGWSTQAPGKERELVAAITRGGSTNSADSVKGRFTISRDNAKNTVYLQMNILKPEDTAVYYCDKDSLVDHVGGYDYWGQATQVTVSS | low polyreactivity
20 | QVQLVESGGGLVQAGGSLRVSCAASGFTFALYAMGWYRQAPGKERELVAAISWSGGTTYYADSVKGRFTISRDNEKNTVDLQMNSLNPEDTAVYYCNAYTRSRGYDYWGQGTQVTVSS | high polyreactivity
21 | QVQLVESGGGLVQAGGSLRLSCAASGSIFKPYAMGWYRQAPGKERELVAAISGIGGSTYYADSVKGRFTISRDNAKNTVYLQMNCLKPEDTAVYYCAADTFFKIFSEYNYWGQGTQVTVSS | high polyreactivity
22 | QVQLVESGGGLVQAGGSLRLSCAASGRTFFKNAMGWYRQAPGKERELVAAITSSGGTTYYADSVKGRFTISRDNAKNTVYLQMISLKPEDTAVYYCATRKYPIRYGYGYWGQGTQVTVSS | high polyreactivity
23 | QVQLVESGGGLVQAGGSLRLSCAASGSTFRWYAMGWYRQAPGTERELVAAISVSTGSTYYADSVKGRFTISRDNAKNTVYVQMNTLKPEDTGVYYCNKVYGWRQFDYWGQGTQVTVSS | high polyreactivity
24 | QVQLVESGGGLVQAGGSLRLSCAASGSIFVRNAMGWYRPAPGKERELVADITSRGSSTYYADSVKGRFTISRDNAKNTVYLQMNSLKPEDTAVYYCNAVRYYVRTYIYRHDRGMDYWGQGTQVTVSS | low polyreactivity
25 | QVQLVESGGGLVQAGCSLRLSCAASGRTFTLNAMGWYRQAPGKERELVADITYSDGDTYYADSVKGRFTISRDNAKNTVYLQMNSLIPEDTAGYYCAAGGYTDPGYEYWGQGTQVTVSS | low polyreactivity
26 | QVQLVESGGGLVQAGGSLRLSCAASGSTFAGNAMGWYRQAPGKERELVAAISSGDRTYYADSVKGRFIISRDNAKNTVYLQMNSLKPEDTAVYYCAAGLYLQGPFDYWGQGTQVTVSS | low polyreactivity
27 | QVQLVESGGGLVQAGGSLRLSCAASGGIFGSYAMGWYRQAPGKERELVAAISWRGGSTYYADSVKGRFTISRDNAKNTVYLQMNSLKPEDTAVYYCAARYRWGYSTSYSYRFDYWGQGTQVTVSS | high polyreactivity
28 | QVQLVESGGGLVQAGGSLRLSCAASGGTFRYYAMGWYRQAPGKERELVAAITSGDTTNYADSVKGRFTISRDNAKNTVYLQMNSLKPEDTAVYYCAKELQVRQAGDYWGQGTQVTVSS | low polyreactivity
29 | QVQLVESGGGLVQAGGSLRLSCVASGNIFVFYLMGWYRQAPGKERELVASISSTGNTYYADSVKGRFTISRDNAKNTVYLQMNSLKPEDTAVYYCAADSHQNVSGWLRWPRMDYWGQGTQVTVSS | low polyreactivity
30 | QVQLVESGGGLVQAGGSLRLSCAASGRIFAYYAMGWYRQAPGKERELVASISSSGVSTYYADSVKGRFTISRDNAKNTVYLQMNSLKPEDTAVYYCAARQFSWDSQRYRHRYDYWGQGTQVTVSS | high polyreactivity
31 | QVQLVESGGGLVQAGGSLRLSCAASGFTIRSYVMGWYRQAPGKEREFVAAISYRGGGTNYADSVKGRFTISRDNAKNTVYLQMNSLKPEDSAVYYCNAYIVSNEGDYWGQGTQVTVSS | high polyreactivity
